Experiment [1] addresses HIV-1 subtype C TV1.C gp120 (reference standard lot) (HIV-1 group M subtype C, strain TV1.C). Put plainly: non-reduced SDS-PAGE; purified gp120 reference material; the dimer band disappeared completely upon reduced SDS-PAGE.
Experiment [2] concerns the target HIV-1 subtype C 1086.C gp120 (reference standard lot) (HIV-1 group M subtype C, strain 1086.C). The experiment is described as above.

As for “HIV-1 subtype C TV1.C gp120 (reference standard lot) (natural protein)”, the stoichiometry N in experiment [1] was determined as 2.

In turn, “HIV-1 subtype C 1086.C gp120 (reference standard lot) (natural protein)” showed a stoichiometry N in experiment [2] of 2.

In general, stoichiometry N refers to the number of molecules, sites or subunits per partner or assembly.

The values are drawn from paper PMC4931634.
